Results on five molecules are retold here after patent US20260193326A1 (published 2026).

As usually defined, the Kd is the concentration at which binding is half-saturated. Read a low Kd as higher affinity. The koff is the first-order rate constant of dissociation. A high value points to a short-lived complex. Usually kon stands for the rate constant with which the complex forms.

What all share (assay): SPR, AAV amine-coupled to CM5 chip;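 further: nanobodies flowed as analyte at seven concentrations spanning 1–100 nM over immobilized AAV (500–800 RU), kinetic constants derived by fitting the binding curves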
(SPR reads the build-up and loss of mass on a sensor chip optically.)

The target in one experiment is T1, AAV5 (adeno-associated virus 5).
T1 construct: also called adeno-associated virus serotype 5

The target of the next experiment is T2, AAV2 (adeno-associated virus 2, UniProt P03135 1-735).
T2 construct: also called adeno-associated virus serotype 2

A further experiment has as its target T3, AAV8 (adeno-associated virus 8).
T3 construct: also called adeno-associated virus serotype 8

Another experiment has as its target T4, AAV9 (adeno-associated virus 9).
T4 construct: also called adeno-associated virus serotype 9

Method for AAV2: (§1) AAV was amine-coupled to a CM5 sensor chip at a density of 500-800 response units (RU). Nanobodies were injected at seven concentrations (1-100 nM) with a flow rate of 45 μL/min, and chip regeneration was performed using glycine-HCl (pH 1.5). Binding curves at different nanobody concentrations were used to calculate kinetic parameters (Kₐ, Kd, KD) (Table 2 and FIG. 2).
Method for AAV5: as §1
Method for AAV8: as §1
Method for AAV9: as §1

B1: A4-072 (VHH)
VHH: VQLQESGGGLAQPGGSLRLSCAASGSSFVINTMGWYRQAPGKQREFVATVTRGGSTNYGEFVKGRFTISRDNAKNTVYLQMNSLRPEDTAVYYCHVDELRQSSWTTSNLWGQGTQVTVSS
With B1, the equilibrium dissociation constant (Kd) with AAV5 came out at 0.00379 µM; with AAV2, 0.00393 µM; with AAV8, 0.0271 µM; with AAV9, 0.00129 µM. Besides, the koff amounted to 0.00038 s⁻¹ with AAV5, 0.00021 s⁻¹ with AAV2, 0.00044 s⁻¹ with AAV8 and 0.00018 s⁻¹ with AAV9. The kon in the experiment with AAV5 is 100000 M⁻¹ s⁻¹; in the experiment with AAV2 it was 53500 M⁻¹ s⁻¹; with AAV8, 16300 M⁻¹ s⁻¹; with AAV9 it was 140000 M⁻¹ s⁻¹.

B2: A4-077 (VHH)
VHH: VQLQESGGGLVQPGGSLRLSCAASGSMFSINIMGWYRQAPGKQREFVATITRGGSTNYADFVKGRFTISRDNAKNTVYLQMNSLRPEDTAVYYCHVDELRDSSWTTSNLWGQGTQVTVSS
For B2, the Kd was found to be 0.000987 µM in the experiment with AAV5, 0.00463 µM in the experiment with AAV2, 0.00292 µM in the experiment with AAV8 and 0.00187 µM in the experiment with AAV9. Also, the koff in the experiment with AAV5 came to 0.00019 s⁻¹; with AAV2 it was 0.00046 s⁻¹; with AAV8, 0.00038 s⁻¹; in the experiment with AAV9, 0.00037 s⁻¹. Moreover, the on-rate (kon) in the experiment with AAV5 amounted to 193000 M⁻¹ s⁻¹; in the experiment with AAV2 it was 99300 M⁻¹ s⁻¹; with AAV8, 130000 M⁻¹ s⁻¹; in the experiment with AAV9 it was 198000 M⁻¹ s⁻¹.

B3: A4-074 (VHH)
VHH: VQLQESGGGLVQSGGSLRLSCAASGSMFSLNTMGWYRQAPGKQRELVATITRGGGTSYADSVKGRFTISRDNAKNTVYLQMNSLRPEDTAVYYCHVDELRQSSWTTSNLWGQGTQVTVSS
Consider B3, for which the Kd stood at 0.00464 µM in the experiment with AAV5, 0.0143 µM with AAV2, 0.0192 µM with AAV8 and 0.00603 µM with AAV9. Further, the koff with AAV5 was 0.00081 s⁻¹; with AAV2, 0.00157 s⁻¹; with AAV8, 0.00181 s⁻¹; in the experiment with AAV9, 0.00017 s⁻¹. In addition, the kon was 175000 M⁻¹ s⁻¹ in the experiment with AAV5, 110000 M⁻¹ s⁻¹ in the experiment with AAV2, 94100 M⁻¹ s⁻¹ with AAV8 and 28200 M⁻¹ s⁻¹ with AAV9.

B4: A4-076 (VHH)
VHH: VQLQESGGGLVHSGGSLRLSCAASGSMFSLNTMGWYRQAPGKQRELVATITRGGGTSYADSVKGRFTISRDNAKNTVYLQMNSLRPEDTAVYYCHVDELRQSSWTTSNLWGQGTQVTVSS
For the molecule B4, the Kd with AAV5 was 0.037 µM; with AAV2, 0.0736 µM; with AAV8, 0.0981 µM; in the experiment with AAV9, 0.00816 µM. Also, the koff came to 0.00015 s⁻¹ with AAV5, 0.00056 s⁻¹ with AAV2, 0.00092 s⁻¹ with AAV8 and 6e-05 s⁻¹ with AAV9. Further, the kon came to 4060 M⁻¹ s⁻¹ in the experiment with AAV5, 7610 M⁻¹ s⁻¹ with AAV2, 9380 M⁻¹ s⁻¹ with AAV8 and 7360 M⁻¹ s⁻¹ with AAV9.

B5: A4-083 (VHH)
VHH: VQLQESGGGLVQTGGSLKLSCAASGSRFSLNTMGWYRQAPRKQREFVAAVTRGGNTNYGDFVKGRFTISRDNAKNTVYLQMNSLRPEDTAVYYCHVDELRESSWTTSNLWGQGTQVTVSS
As for B5, the Kd with AAV5 was found to be 0.031 µM; with AAV2, 0.944 µM; in the experiment with AAV8, 0.0424 µM; with AAV9 it was 0.0923 µM. For the same molecule, the koff is 0.00287 s⁻¹ in the experiment with AAV5, 0.00344 s⁻¹ with AAV2, 0.00737 s⁻¹ with AAV8 and 0.00657 s⁻¹ with AAV9. For the same molecule, the kon was determined as 92500 M⁻¹ s⁻¹ with AAV5, 3640 M⁻¹ s⁻¹ with AAV2, 174000 M⁻¹ s⁻¹ in the experiment with AAV8 and 71200 M⁻¹ s⁻¹ with AAV9.
